Measured values taken from patent publication US20210070883A1 (AQUALUNG THERAPEUTICS, published 2021).
Residue numbers refer to the chain shown, from its start.

B1: murine anti-hNAMPT antibody AL-303 (antibody, V domains shown)
VH: QVQLQQPGADLVKPGASVKLSCKASGYTFTSYWMQWVKQRPGQGLEWIGEIDPSNSYTNYNQKFRGKATLTVDPSSSTAYMQLSSLTSEDSAVYYCARGGYWGQGTTLTVSS
VL: DIVMTQAAFSNPVTLGTSASISCRSSKSLLHSNGITYLYWYLQKPGQSPQLLIYQMSNLASGVPDRFSSSGSGTDFTLRISRVEAEDVGVYYCVQNLELPYTFGGGTKLEIK
notes: Murine monoclonal antibody
B2: murine anti-NAMPT antibody AL-310 (antibody, V domains shown)
VH: QVQLQQSGAESVMPGASVKLSCKASGYTFTSYWMHWVKQRPGQGLEWIGEIDPSDSYTNYNQKFKGKSTLTVDKSSSTAYMQLSSLTSEDSAVYYCAKSNYVVPWYFDVWGTGTTVTVSS
VL: B1 VL with V94A, Y101W
notes: Murine monoclonal antibody; also called AL-310mAb
B3: murine anti-NAMPT antibody AL-304 (antibody, V domains shown)
VH: B1 VH
VL: B1 VL
B4: 1076 humanized anti-hNAMPT antibody K-1076 (antibody, V domains shown)
VH: QVQLVQSGAEVKKPGASVKVSCKASGYTFTSYWMQWVRQAPGQGLEWMGEIDPSNSYTNYNQKFRGRVTMTTDTSTSTAYMELRSLRSDDTAVYYCARGGYWGQGTTVTVSS
VL: DIVMTQSPLSLPVTPGEPASISCRSSKSLLHSQGITYLYWYLQKPGQSPQLLIYQLSNRASGVPDRFSGSGSGTDFTLKISRVEAEDVGVYYCVQNLELPYTFGGGTKLEIK
notes: also called Ab-1076-HC2-LC5
B5: 1093 humanized anti-hNAMPT antibody NN-1093 (antibody, V domains shown)
VH: QVQLVQSGAEVTKPGASVKVSCKASGYTFTSYWMHWVRQAPGQGLEWVGEIDPSDSYTNYNQKFKGRVTLTRDTSTTTVYMELSSLRSEDTAVYYCAKSNYVVPWYFDVWGQGTTVTVSS
VL: EIVLTQSPATLSLSPGERATLSCRSSKSLLHSNGITYLYWYQQKPGQAPRLLIYQMSNLASGIPARFSGSGSGTDFTLTISSLEPEDFAVYYCAQNLELPWTFGGGTKLEIK
notes: Humanized from AL-310; it was detected with a goat anti-human antibody

Experiments:
[1] = molecular target: T1, human nicotinamide phosphoribosyltransferase (NAMPT) (human, UniProt P43490 1-491); experiment: Western blot on recombinant hNAMPT and HPAEC cell lysate, exposures of 30 sec and 5 min
T1 construct: Recombinant hNAMPT was bought (MBL International); In the Western blots the protein was recombinant or in HPAEC lysate; also called hNAMPT; recombinant hNAMPT
T1 sequence (P43490 whole entry): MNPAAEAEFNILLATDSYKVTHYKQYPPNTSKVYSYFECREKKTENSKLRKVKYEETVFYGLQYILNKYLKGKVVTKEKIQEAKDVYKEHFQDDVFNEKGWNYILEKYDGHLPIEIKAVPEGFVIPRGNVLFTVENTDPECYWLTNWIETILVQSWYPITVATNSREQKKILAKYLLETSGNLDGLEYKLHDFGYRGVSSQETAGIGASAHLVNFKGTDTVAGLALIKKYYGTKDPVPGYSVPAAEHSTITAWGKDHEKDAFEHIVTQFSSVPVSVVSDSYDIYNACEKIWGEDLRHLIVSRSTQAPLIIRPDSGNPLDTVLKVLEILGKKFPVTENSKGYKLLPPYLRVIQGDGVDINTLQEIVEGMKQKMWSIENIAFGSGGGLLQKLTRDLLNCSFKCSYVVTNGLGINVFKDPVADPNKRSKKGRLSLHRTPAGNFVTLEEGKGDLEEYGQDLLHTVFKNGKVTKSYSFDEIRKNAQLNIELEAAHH

[2] = molecular target: T2, mouse NAMPT (mouse, UniProt Q99KQ4 1-491, limits assumed); experiment: Western blot on recombinant mNAMPT and mouse lung lysates (SB, LPS, VILI), exposures of 30 sec and 5 min
T2 construct: Recombinant mNAMPT; also called mNAMPT; recombinant mouse NAMPT
T2 sequence (Q99KQ4 whole entry): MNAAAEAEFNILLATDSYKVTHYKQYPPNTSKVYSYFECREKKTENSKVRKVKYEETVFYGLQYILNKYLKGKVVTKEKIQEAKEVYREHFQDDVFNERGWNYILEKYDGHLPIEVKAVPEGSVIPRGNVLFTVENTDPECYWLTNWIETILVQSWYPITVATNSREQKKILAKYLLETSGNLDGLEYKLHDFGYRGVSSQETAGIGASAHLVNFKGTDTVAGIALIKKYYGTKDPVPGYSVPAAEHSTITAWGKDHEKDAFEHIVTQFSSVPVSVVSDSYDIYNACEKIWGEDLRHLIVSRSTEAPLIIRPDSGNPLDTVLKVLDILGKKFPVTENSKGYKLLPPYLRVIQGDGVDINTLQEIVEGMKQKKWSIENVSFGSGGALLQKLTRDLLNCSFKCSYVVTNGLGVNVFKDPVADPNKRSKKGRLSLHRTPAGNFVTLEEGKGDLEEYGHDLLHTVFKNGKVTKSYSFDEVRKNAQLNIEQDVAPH

[3] = molecular target: T1, human nicotinamide …; experiment: told with the Pepscan epitope mapping; assay for the dimer not described

Binder	binding result [1]	binding result [2]	binding result [3]
B1	binds	binds	
B2	binds	no binding	
B3	binds	binds	
B4			binds
B5			binds
